Source: US5451506A, “Oncostatin M and novel compositions having anti-neoplastic activity” (Oncogen Limited Partnership, priority 1993, dated 1995)

Tests used:
[1] = target: T1, Oncostatin M receptor on A375 or A549 cells (Homo sapiens, UniProt P40189+Q99650); assay: Specificity of Oncostatin M receptor: competition for binding of 125I-Oncostatin M; conditions: 125I-Oncostatin M 30-50 ng/ml
T1 construct: endogenous in cells; host or cells: A375 or A549 cells (intact monolayers)
T1 sequence (Q99650 28-979): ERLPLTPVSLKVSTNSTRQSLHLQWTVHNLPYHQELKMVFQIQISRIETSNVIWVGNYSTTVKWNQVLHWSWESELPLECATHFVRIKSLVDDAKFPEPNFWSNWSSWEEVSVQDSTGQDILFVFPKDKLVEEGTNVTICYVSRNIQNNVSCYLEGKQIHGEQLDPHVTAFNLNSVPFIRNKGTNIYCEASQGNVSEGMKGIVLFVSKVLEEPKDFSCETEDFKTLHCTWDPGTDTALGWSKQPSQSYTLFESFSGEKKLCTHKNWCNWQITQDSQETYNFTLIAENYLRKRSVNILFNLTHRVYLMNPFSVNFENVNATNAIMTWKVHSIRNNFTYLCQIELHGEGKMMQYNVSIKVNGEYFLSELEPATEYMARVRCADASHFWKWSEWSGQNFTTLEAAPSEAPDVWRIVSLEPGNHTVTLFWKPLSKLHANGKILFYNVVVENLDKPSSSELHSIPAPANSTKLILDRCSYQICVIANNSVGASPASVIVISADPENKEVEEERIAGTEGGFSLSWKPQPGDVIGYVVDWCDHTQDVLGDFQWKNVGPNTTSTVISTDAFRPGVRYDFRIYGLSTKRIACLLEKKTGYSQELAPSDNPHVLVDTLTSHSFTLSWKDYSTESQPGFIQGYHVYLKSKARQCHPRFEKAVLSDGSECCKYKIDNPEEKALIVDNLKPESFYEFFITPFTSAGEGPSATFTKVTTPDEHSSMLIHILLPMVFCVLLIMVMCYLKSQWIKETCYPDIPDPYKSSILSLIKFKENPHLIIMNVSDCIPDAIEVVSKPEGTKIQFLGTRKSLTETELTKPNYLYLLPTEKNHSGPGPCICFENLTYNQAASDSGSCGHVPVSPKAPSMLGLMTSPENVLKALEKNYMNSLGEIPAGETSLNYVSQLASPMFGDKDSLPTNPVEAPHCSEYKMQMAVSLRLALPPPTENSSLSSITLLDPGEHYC
T1 sequence (P40189 23-918): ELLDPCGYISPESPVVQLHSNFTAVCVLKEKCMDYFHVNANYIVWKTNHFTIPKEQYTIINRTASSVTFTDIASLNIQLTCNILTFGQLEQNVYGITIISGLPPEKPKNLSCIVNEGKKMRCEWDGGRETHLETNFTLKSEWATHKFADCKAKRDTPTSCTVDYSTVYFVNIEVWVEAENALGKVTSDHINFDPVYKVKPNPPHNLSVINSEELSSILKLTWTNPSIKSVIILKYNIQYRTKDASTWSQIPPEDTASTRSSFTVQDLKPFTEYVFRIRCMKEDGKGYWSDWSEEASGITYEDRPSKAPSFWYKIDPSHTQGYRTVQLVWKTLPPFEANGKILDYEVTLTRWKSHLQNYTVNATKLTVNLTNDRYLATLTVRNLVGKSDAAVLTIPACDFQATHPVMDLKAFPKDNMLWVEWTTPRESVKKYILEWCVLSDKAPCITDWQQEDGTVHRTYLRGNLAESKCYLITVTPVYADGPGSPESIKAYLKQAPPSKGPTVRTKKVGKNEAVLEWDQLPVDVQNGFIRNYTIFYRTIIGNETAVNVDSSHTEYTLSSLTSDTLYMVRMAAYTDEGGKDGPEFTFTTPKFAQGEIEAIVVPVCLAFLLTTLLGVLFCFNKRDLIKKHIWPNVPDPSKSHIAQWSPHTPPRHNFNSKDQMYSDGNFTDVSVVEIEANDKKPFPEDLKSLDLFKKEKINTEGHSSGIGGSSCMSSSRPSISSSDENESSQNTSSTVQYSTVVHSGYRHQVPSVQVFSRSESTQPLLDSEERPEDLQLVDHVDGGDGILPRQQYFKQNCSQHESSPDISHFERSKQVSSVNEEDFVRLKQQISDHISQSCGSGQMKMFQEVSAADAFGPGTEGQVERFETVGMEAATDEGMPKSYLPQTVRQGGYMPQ
Experimental: The cell line of interest was plated in 48-well plates at a density of 2×10^5 cells/well and maintained at 37° C. for 16-24 hours before initiation of the assay. Cell monolayers were then washed once with Binding buffer (Linsley et al., Biochemistry (1986) 25:2978-2986). To measure total binding, ^125 I-Oncostatin M was added at concentrations ranging from 0.5-100 ng/ml. To measure non-specific binding, unlabeled Oncostatin M was added simultaneously with the ^125 I-Oncostatin M to replicate plates at a concentration 20- to 100-fold higher than the concentration of ^125 I-Oncostatin M. Binding was allowed to proceed for 2-5 hours at 23°, then the monolayers were washed four times with Binding Buffer, cell-bound radioactivity was solubilized with 1N NaOH and was counted in a gamma counter. Specific binding was calculated by subtracting the non-specific binding from total binding. The dissociation constant (Kd) and binding capacity was determined by Scatchard analysis (Scatchard, Ann. N.Y. Acad. Sci. (1949) 51:660).
The specificity of the Oncostatin M receptor was determined by evaluating the ability of several other polypeptide growth factors to compete for binding of ^125 I-Oncostatin M (at 30-50 ng/ml) to A375 or A549 cells.

[2] = system: A375 cells; assay: Growth inhibition assay (A375 proliferation; synergy tests); assay type: cell-based, human
Experimental: A375 melanoma cells (4×10^3 cells/50 μl), Mv1Lu mink lung epithelial cells (3.5×10^3 cells/50 μl), or other cell line of interest at an appropriate cell density were subcultured for four hours on flat-bottomed 96-well tissue culture plates (Costar 3596, Cambridge, Mass.) in growth medium comprising Dulbecco's modified Eagle's medium (DMEM), supplemented with 10% heat-in-activated fetal bovine serum, and P/S. Test samples to be assayed for growth inhibition were diluted in growth medium and assayed in triplicate with 50 μl of the diluted sample added to each well. The cells were incubated for 72 hours at 37° C.
The growth inhibitory activity of highly purified TGF-β1, recombinant gamma-interferon (rIFN-γ), and Oncostatin M on A375 cells was determined, and possible synergy between TGF-β1 and Oncostatin M, TGF-β1 and rIFN-γ, and Oncostatin M and rIFN-γ in inhibiting A375 proliferation was tested. […] is expressed in units of Mv1Lu growth inhibitory activity, rIFN-γ in units of anti-viral activity and Oncostatin M in units of A375 growth inhibitory activity. Concentrations of TGF-β1 (1-30 U/ml) and Oncostatin M (0.5-10 U/ml) were chosen which caused either no or only minimal growth inhibition when tested individually.

[3] = system: A375 cells; assay: Growth inhibitory assay of recombinant Oncostatin M (crystal violet staining); assay type: cell-based, human; conditions: for Expression Level Units/ml (growth inhibitory activity): medium or extract of the expressing host cells (COS, CHO without methotrexate amplification, sf9); for Oncostatin M activity in medium of transfected COS cells: further test, one unit inhibits growth of A375 cells by 50%
Experimental: Biological activity of recombinant Oncostatin M was assessed by a growth inhibitory assay. Briefly, aliquots of extracts from transformed cells or medium from cell cultures were lyophilized with 20 μg bovine serum albumin as a carrier protein, resuspended in DMEM containing 10% fetal calf serum, and diluted serially before addition to 96-well cultures containing A375 cells (3.5×10^3 cells/well). […] Recombinant Oncostatin M was prepared using the following expression systems: E. coli, COS cells, CHO and insect cells (sf9).

**Q.** For Lys^3 bombesin, which “Inhibitory activity towards binding of 125I-Oncostatin M” value (“Inhibitory activity towards binding” for short) ([1]; competitor 50 μM) is on record?
**A.** Its value is “None of these showed significant inhibitory activity”.

**Q.** How did the “Inhibition of cell growth” value ([2]; 3.4 U/ml, alone) turn out when “TGF-β1: highly purified transforming growth factor-β1, units of Mv1Lu growth inhibitory activity” was run?
**A.** Its value is 7%.

**Q.** With Tyr^3 -bombesin as the molecule, how does the “Inhibitory activity towards binding” value ([1]; competitor 1 μM) read?
**A.** Its value is “None of these showed significant inhibitory activity”.

**Q.** For “epidermal growth factor: polypeptide growth factor tested as competitor”, which “Inhibitory activity towards binding” value ([1]; competitor 2.5 μg/ml) is on record?
**A.** Its value is “None of these showed significant inhibitory activity”.

**Q.** With fibroblast growth factor as the molecule, how does the “Inhibitory activity towards binding” value ([1]; competitor 2.5 μg/ml) read?
**A.** The value was “None of these showed significant inhibitory activity”.

**Q.** For formyl-M-L-F, which “Inhibitory activity towards binding” value ([1]; competitor 50 μM) is on record?
**A.** Its value is “None of these showed significant inhibitory activity”.

**Q.** For “interleukin 1-β: polypeptide growth factor tested as competitor”, which “Inhibitory activity towards binding” value ([1]; competitor 50 μg/ml) is on record?
**A.** The value was “None of these showed significant inhibitory activity”.

B1: gamma interferon: gamma-interferon; recombinant in the synergy tests (protein, UniProt P01579 24-161, looked up)
Interferon gamma: QDPYVKEAENLKKYFNAGHSDVADNGTLFLGILKNWKEESDRKIMQSQIVSFYFKLFKNFKDDQSIQKSVETIKEDMNVKFFNSNKKKRDDFEKLTNYSVTDLNVQRKAIHELIQVMAELSPAAKTGKRKRSQMLFRG
**Q.** Which “Inhibitory activity towards binding” value ([1]; competitor 2.5 μg/ml) does the source give for B1 here?
**A.** The value was “None of these showed significant inhibitory activity”.

B2: ^125 I-Oncostatin M: Oncostatin M purified from TPA-treated U937 cells and radiolabeled with 125I by the iodogen method (protein, UniProt P13725 26-221, looked up)
Oncostatin-M: AAIGSCSKEYRVLLGQLQKQTDLMQDTSRLLDPYIRIQGLDVPKLREHCRERPGAFPSEETLRGLGRRGFLQTLNATLGCVLHRLADLEQRLPKAQDLERSGLNIEDLEKLQMARPNILGLRNNIYCMAQLLDNSDTAEPTKAGRGASQPPTPTPASDAFQRKLEGCRFLHGYHRFMHSVGRVFSKWGESPNRSRR
modifications: 125I label
notes: Oncostatin M purified from TPA-treated U937 cells and radiolabeled with 125I by the iodogen method
**Q.** How did the “Original biological activity retained after iodination” value ([2]; growth inhibition assays) turn out when B2 was run?
**A.** Its value is “approximately 85%”.

B3: pAc/OncM: Oncostatin M expressed under control of the baculovirus polyhedrin gene regulators (protein, UniProt P13725 26-221, looked up)
Oncostatin-M: B2 Oncostatin-M
modifications: baculovirus-expressed
notes: Oncostatin M expressed under control of the baculovirus polyhedrin gene regulators
**Q.** For B3, which “Expression Level Units/ml (growth inhibitory activity)” value [3] is on record?
**A.** Its value is 1,800 GIA units/ml.

B4: plasmid pH3M containing just the Oncostatin M sequences: pH3M containing Oncostatin M sequences without the fused βTGF leader sequence (protein, UniProt P13725 26-221, looked up)
Oncostatin-M: B2 Oncostatin-M
**Q.** How did the “Oncostatin M activity in medium of transfected COS cells” value [3] turn out when B4 was run?
**A.** The value was “No activity was detected”.

B5: pH3M/βOncM: Oncostatin M with βTGF leader sequence fused to the coding sequence, secreted into medium (protein, UniProt P13725 26-221, looked up)
Oncostatin-M: B2 Oncostatin-M
modifications: expressed with TGF-beta leader sequence
**Q.** Which results are given for B5?
**A.** Sp. Act ([3]; E. coli fusion proteins purified and refolded before testing): > 10,000 GIA units/ug protein; Oncostatin M activity in medium of transfected COS cells [3]: approximately 18,000 units/ml; Expression Level Units/ml (growth inhibitory activity) [3]: 56,000 GIA units/ml

B6: pSV2βOncM/dhfr: Human Oncostatin M gene fused to βTGF leader sequence, with mouse dhfr gene (protein, UniProt P13725 26-221, looked up)
Oncostatin-M: B2 Oncostatin-M
modifications: expressed with TGF-beta leader sequence
**Q.** For B6, which “Expression Level Units/ml (growth inhibitory activity)” value [3] is on record?
**A.** Its value is 10,000 GIA units/ml.
